Columns and labels:
[1] = target: the molecule itself; assay: crystal structure; DIR-cf1: protein in 15 mM Tris-HCl pH 7.4, 1 mM DTT, 6.25 mg/mL; reservoir 0.2 M CaCl2, 20% (w/v) PEG 3350; sitting drop, 20 °C; space group P212121; three chains per asymmetric unit
[2] = target: the molecule itself; assay: crystal structure; JRL-cf1: protein in 25 mM sodium phosphate pH 7.0, 10 mg/mL; reservoir 0.05 M MES pH 6.0, 28% (w/v) PEG 3350; sitting drop, 20 °C; non-reducing; space group P212121; two chains per asymmetric unit
[3] = target: the molecule itself; assay: crystal structure; JRL-cf2: protein in 25 mM sodium phosphate pH 7.0, 11 mg/mL; reservoir 0.2 M NH4I, 20% (w/v) PEG 3350; sitting drop, 20 °C; space group C2221; two chains per asymmetric unit

B1: OsJAC1-DIR domain (His-tag cleaved by thrombin) (domain or fragment, rice (Oryza sativa))
chain: SKLQITPCGMLVQGNQINFTKLYLHHTPAGPEQNQSAVTSNDKKTGLGCIVVNNWSVYDGIGSDAKLVAYAKGLHVFAGAWHNSFSLVFEDERLKGSTLQVMGLIVEEGDWAIVGGTGQFAMATGVILKKMQEQKQYGNIIELTIHGFCPLLKGS
notes: DIR (dirigent) domain, the N-terminal domain of the monocot chimeric jacalin OsJAC1, rice (Oryza sativa); traced residues include Lys6 (chain B), and the C-terminus of the model of chain A (cf1) is at Leu155; also called DIR-cf1; DIR-cf2; source: prepared as previously described in Huwa et al. (2021) [25]; His-tag removed with thrombin, no further purification
stoichiometry N [1]: 3

B2: OsJAC1-JRL domain (His-tagged, crystal form 1) (domain or fragment, rice (Oryza sativa))
chain: QCPVTKIGPWGSSHEGTVQDITESPKRLESITLYHGWSVDSISFTYLDHAGEKHKAGPWGGPGGDPIMIEFGSSEFLKEVSGTFGPYEGSTVITSINFITNKQTYGPFGRQEGTPFSVPAQNNSSIVGFFGRSGKYINAVGVYVQPI
modifications: symmetric inter-subunit disulfide bond at Cys161 (Cys161-Cys161)
notes: JRL (jacalin-related lectin) domain of the monocot chimeric jacalin OsJAC1, rice (Oryza sativa); the model's termini are Gln160 and Pro305 of full-length OsJAC1 (residue range 160-306 used for superposition); also called JRL-cf1; OsJAC1-JRL (cf1); source: prepared as previously described in Huwa et al. (2021) [25]
stoichiometry N [2]: 2

B3: OsJAC1-JRL domain (Strep-tagged, crystal form 2) (domain or fragment, rice (Oryza sativa))
chain: B2 chain
modifications: symmetric inter-subunit disulfide bond at Cys161 (Cys161-Cys161)
notes: JRL (jacalin-related lectin) domain of the monocot chimeric jacalin OsJAC1, rice (Oryza sativa); residue range 160-306 of full-length OsJAC1 used for superposition; also called JRL-cf2; OsJAC1-JRL (cf2); source: prepared as previously described in Huwa et al. (2021) [25]
stoichiometry N [3]: 2

Reference: publication PMC9405769, “The Crystal Structure of the Defense Conferring Rice Protein OsJAC1 Reveals a Carbohydrate Binding Site on the Dirigent-like Domain” (Biomolecules, 2022)
